Reference: patent US20260258115A1 (MAPP BIOPHARMACEUTICAL, published 2026)

Molecular target: T1, RSV postfusion F (postF), subtype A (respiratory syncytial virus subtype A, UniProt P03420 26-513)
T1 construct: also called Postfusion subtype A; F deltaFP
Assay: BLI

Binder	binding result
ADI-24830 (antibody, V domains shown, full-length IgG) VH: QVQLVQSGAEVKKPGSSVKVSCKASGGTFSSYAISWVRQAPGQGLEWMGGIIPIFGTANYAQKFQGRVTITADESTSTAYMELSSLRSEDTAVYYCARGGSMVRGLGFDPWGQGTLVTVSS VL: not shown	no binding
ADI-25503 (antibody, V domains shown, full-length IgG) VH: EVQLLESGAEVKKPGSSVKVSCKASGGTFSSYAISWVRQAPGQGLEWMGGIIPIFGTANYAQKFQGRVTITADESTSTAYMELSSLRSEDTAVYYCARSRYSGSYYYYYGMDVWGQGTTVTVSS VL: not shown	no binding
ADI-25514 (antibody, V domains shown, full-length IgG) VH: EVQLVQSGAEVKKPGSSVKVSCKASGGTFSSYAISWVRQAPGQGLEWMGGIIPIFGTANYAQKFQGRVTITADESTSTAYMELSSLRSEDTAVYYCARSRYSGSYYYYYGMDVWGQGTTVTVSS VL: not shown	no binding
ADI-24824 (antibody, V domains shown) VH: QVQLQESGPGLVKPSETLSLTCTVSGGSISSYYWSWIRQPPGKGLEWIGYIYYSGSTNYNPSLKSRVTISVDTSKNQFSLKLSSVTAADTAVYYCAISLYGDYRTDAFDIWGQGTTVTVSS VL: EIVLTQSPSSFSASTGDRVTITCRASQGISSYLAWYQQKPGKAPKLLIYAASTLQSGVPSRFSGSGSGTDFTLTISCLQSEDFATYYCQQYYSYPLFGGGTKVEIK	no binding
ADI-25588 (antibody, V domains shown, full-length IgG) VH: EVQLVESGGGLVKPGGSLRLSCAASGFTFSSYSMNWVRQAPGKGLEWVSSISSSSSYIYYADSVKGRFTISRDNAKNSLYLQMNSLRAEDTAVYYCARYSSSLGAFDIWGQGTTVTVSS VL: QSVLTQPPSVSGAPGQRVTISCTGSSSNIGAGYDVHWYQQLPGTAPKLLIYGNSNRPSGVPDRFSGSKSGTSASLAITGLQAEDEADYYCQSYDSSLSDVFGTGTKVTVL	no binding
ADI-22767 (antibody, V domains shown, full-length IgG) VH: QVQLVESGGGLVKPGGSLRLSCAASGFTFSSYSMNWVRQAPGKGLEWVSSISSSSSYIYYADSVKGRFTISRDNAKNSLYLQMNSLRAEDTAVYYCAREANWGVAFDIWGQGTMVTVSS VL: QSVVTQPPSVSGAPGQRVTISCTGSSSNIGAGYDVHWYQQLPGTAPKLLIYGNSNRPSGVPDRFSGSKSGTSASLAITGLQAEDEADYYCQSYDSSLSYVFGTGTKVTVL	no binding
ADI-19441 (antibody, V domains shown, full-length IgG) VH: QVQLVQSGAEVKKPGSSVKVSCKASGGTFSSYAISWVRQAPGQGLEWMGRIIPILGIANYAQKFQGRVTITADKSTSTAYMELSSLRSEDTAVYYCARGPLTGYSSSWFDPWGQGTLVTVSS VL: EIVMTQSPSSLSASVGDRVTITCRASQSISSYLNWYQQKPGKAPKLLIYAASSLQSGVPSRFSGSGSGTDFTLTISSLQPEDFATYYCQQSYSTLPYTFGQGTKVEIK	no binding
ADI-24801 (antibody, V domains shown, full-length IgG; also called Ab 368) VH: QVQLVQSGAEVKKPGASVKVSCKASGYTFTSYGISWVRQAPGQGLEWMGWISAYNGNTNYAQKLQGRVTMTTDTSTSTAYMELRSLRSDDTAVYYCARVTARTFGGIRKGYYYGMDVWGQGTTVTVSS VL: not shown	no binding
ADI-24816 (antibody, V domains shown, full-length IgG) VH: QVQLVQSGAEVKKPGASVKVSCKASGYTFTSYDINWVRQATGQGLEWMGWMNPNSGNTGYAQKFQGRVTMTRNTSISTAYMELSSLRSEDTAVYYCARGIPGYYYYGMDVWGQGTTVTVSS VL: not shown	no binding
ADI-19455 (antibody, V domains shown, full-length IgG) VH: EVQLVESGGGLVKPGGSLRLSCAASGFTFSSYSMNWVRQAPGKGLEWVSSISSSSSYIYYADSVKGRFTISRDNAKNSLYLQMNSLRAEDTAVYYCARSQSGSYYSSDYWGQGTLVTVSS VL: QSVLTQPPSVSGAPGQRVTISCTGSSSNIGAGYDVHWYQQLPGTAPKLLIYGNSNRPSGVPDRFSGSKSGTSASLAITGLQAEDEADYYCQSYDSSLSGWVFGGGTKVTVL	no binding
ADI-25496 (antibody, V domains shown, full-length IgG) VH: QVQLVQSGGGLVKPGGSLRLSCAASGFTFSSYSMNWVRQAPGKGLEWVSSISSSSSYIYYADSVKGRFTISRDNAKNSLYLQMNSLRAEDTAVYYCARVASEVWFFDLWGRGTLVTVSS VL: QPVLTQPPSVSGAPGQRVTISCTGSSSNIGAGYDVHWYQQLPGTAPKLLIYGNSNRPSGVPDRFSGSKSGTSASLAITGLQAEDEADYYCQSYDSSLSGYVFGTGTKLTVL	no binding
ADI-19429 (antibody, V domains shown) VH: EVQLQESGPGLVKPSETLSLTCTVSGGSISSSSYYWGWIRQPPGKGLEWIGSIYYSGSTYYNPSLKSRVTISVDTSKNQFSLKLSSVTAADTAVYYCARTPLYSYGRVVGFYYYGMDVWGQGTTVTVSS VL: QSVLTQPPSVSGAPGQRVTISCTGSSSNIGAGYDVHWYQQLPGTAPKLLIYGNSNRPSGVPDRFSGSKSGTSASLAITGLQAEDEADYYCQSYDSSLSGWVFGGGTKLTVL	no binding
ADI-24813 (antibody, V domains shown, full-length IgG) VH: EVQLLESGGGLVQPGRSLRLSCAASGFTFDDYAMHWVRQAPGKGLEWVSGISWNSGSIGYADSVKGRFTISRDNAKNSLYLQMNSLRAEDTALYYCAKDGDSSSWRDSNFDYWGQGTLVTVSS VL: QSVLTQPPSVSGAPGQRVTISCTGSSSNIGAGYDVHWYQQLPGTAPKLLIYGNSNRPSGVPDRFSGSKSGTSASLAITGLQAEDEADYYCQSYDSSLSGVVFGGGTKLTVL	no binding
ADI-24822 (antibody, V domains shown, full-length IgG) VH: QVQLVESGGGLVKPGGSLRLSCAASGFTFSSYSMNWVRQAPGKGLEWVSSISSSSSYIYYADSVKGRFTISRDNAKNSLYLQMNSLRAEDTAVYYCARDSGLGSRGDAFDIWGQGTMVTVSS VL: QSVLTQPPSVSGAPGQRVTISCTGSSSNIGAGYDVHWYQQLPGTAPKLLIYGNSNRPSGVPDRFSGSKSGTSASLAITGLQAEDEADYYCQSYDSSLSGYVFGTGTKVTVL	no binding
ADI-25595 (antibody, V domains shown, full-length IgG; also called Ab 464) VH: EVQLVESGGGLVKPGGSLRLSCAASGFTFSSYSMNWVRQAPGKGLEWVSSISSSSSYIYYADSVKGRFTISRDNAKNSLYLQMNSLRAEDTAVYYCARYQSSSWYYFDYWGQGTLVTVSS VL: SYVLTQPPSVSGAPGQRVTISCTGSSSNIGAGYDVHWYQQLPGTAPKLLIYGNSNRPSGVPDRFSGSKSGTSASLAITGLQAEDEADYYCQSYDSSLSGVVFGGGTKLTVL	no binding
ADI-19444 (antibody, V domains shown, full-length IgG) VH: QVQLVQSGAEVKKPGASVKVSCKASGYTFTSYGISWVRQAPGQGLEWMGWISAYNGNTNYAQKLQGRVTMTTDTSTSTAYMELRSLRSDDTAVYYCARDEALVGATFDYWGQGTLVTVSS VL: not shown	no binding
ADI-19435 (antibody, V domains shown, full-length IgG) VH: QVQLQESGPGLVKPSQTLSLTCTVSGGSISSGSYYWSWIRQPAGKGLEWIGRIYTSGSTNYNPSLKSRVTISVDTSKNQFSLKLSSVTAADTAVYYCAREGRGGAFDIWGQGTLVTVSS VL: SYELTQPPSVSVSPGQTARITCSADALPKQYAYWYQQKPGQAPVLVIYKDSERPSGIPERFSGSSSGTTVTLTISGVQAEDEADYYCQSADSSGTYVVFGGGTQLTVL	no binding
ADI-19463 (antibody, V domains shown, full-length IgG) VH: QVQLQESGPGLVKPSQTLSLTCTVSGGSISSGDYYWSWIRQPPGKGLEWIGYIYYSGSTYYNPSLKSRVTISVDTSKNQFSLKLSSVTAADTAVYYCARDRLGIFDYWGQGTLVTVSS VL: not shown	no binding

Molecular target: RSV prefusion F (preF), subtype B (respiratory syncytial virus, subtype B)
Assay: BLI, IgG

Binder	Kd [nM]
ADI-21015 (antibody, V domains shown) VH: QVQLVQSGAEVKKPGASVRVSCKVPGNTLSDLSMHWVRHTPGEGLEWMGSFDPEYGETIPAQRFQGRVTMTEDTSTDTAYMELTSLRFEDTAVYYCAAPHASGALQHWGQGTLVTVSS VL: DIVMTQSPSSLSASVGDRVTITCRASQIISAYLNWYQQKAGKAPKLLIYAASSLQSGVPSRFSGSGSGTDFTLTISSLQPEDFATYYCQQTYITPFTFGQGTKLEIK	32.4
ADI-21058 (antibody, V domains shown) VH: QVQLQESGPGLVKPSETLSLTCTVSGGSISGTTYYWAWIRQPPGKGLEWIGTIFYSGSTYYNPSLQSRVTTSVDASKNQMSLRLSSVTAADTAMYYCARHTSIYDNLTGFYSHLTGVLDMWGQGTMVTVSS VL: not shown	0.515
ADI-21049 (antibody, V domains shown) VH: EVQLVESGGGLVKPGGSLRLSCSASGFAFSSYSMNWVRQAPGKGLEWVSSISASSSYIFYADSVKGRFTISRDNAKNSLYLQMNSLRAEDTAFYYCARALSPGYGDYRDYWGQGTLVTVSS VL: QSVVTQPPSVSGAPGQRVTISCTGSSSNIGAGYDVHWYQQLPGAAPKLLIYGNNNRPSGVPDRFSGSKSGTSASLAITGLQAEDEADFYCQSYDHNLSVVFGGGTKLTVL	1.27
ADI-21018 (antibody, V domains shown) VH: EVQLLESGGGLVKPGGSLRLSCAGSGFTLSSYGMNWVRQAPGQGLEWISSISSSSSYINYADSVKGRFTISRDNAQNSLYLQLNSLRAEDTAVYYCARGGLGYDYGLGSYTYADYWGQGTLVTVSS VL: QSVVTQPPSVSGAPGQRVTISCTGSSSNTGAGYDIHWYQQLPGTGPKLLIYGNKNRPSGVPDRFSGSKSGTSASLAITGLQAEDEADYYCQSYDSSLSGWVFGGGTKVTVL	0.366
ADI-21028 (antibody, V domains shown) VH: EVQLVESGGALVKPGGSLRLSCVASGFTFSDYYMHWVRQAPGKGLEWVSYISSTSSFTNYADSVKGRFIISRDNAKNSLYLQLNSLRAEDTAVYYCARDESSGWQTRRHFGMDVWGQGTLVTVSS VL: EIVMTQSPSTLSASVGDRVTITCRASQSLNTWLAWYQHKPGKAPKLLISTASSLQSGVPSRFSASGSGTEFTLTISSLQPDDFATYYCQQFRGTFGPGTKVEIK	3.33
ADI-21057 (antibody, V domains shown) VH: QVQLVQSGAEVKKPGESLKISCKASGYSLSNNWIAWVRQMPGKGLEWMGIVYLGDSDARYSPSFQGQVTFSADKSISTAYLQWSSLQASDTAMYFCARHHGDLVVTSDSRYFYGLDVWGQGTTVTVSS VL: not shown	0.86
